Measurements as given in US20240116985A1 (published 2024).
Starred links: 1 amine or outer side, 2 acyl side, 3 side chain; linkers in the order of their positions; H or OH if unused. Positions of bridges follow the written chain, without caps; N, C: chain ends. Non-standard residues stand in square brackets, D forms with d. Primed or numbered codes have the meaning given here. No end group written: not given here. *: point of attachment. PyrS2(3) = (S)-3-amino-1-((pent-4-en-1-yloxy)carbonyl)pyrrolidine-3-carboxylic acid, stapling residue, C=CCCCOC(=O)N1CC[C@@](N[*:1])(C(=O)[*:2])C1; PyrS2″ = (S)-3-amino-1-((pent-4-en-1-yloxy)carbonyl)pyrrolidine-3-carboxylic acid (stapling residue), C=CCCCOC(=O)N1CC[C@@](N[*:1])(C(=O)[*:2])C1; PyrS3″ = (S)-3-amino-1-((hex-5-en-1-yloxy)carbonyl)pyrrolidine-3-carboxylic acid (stapling residue), C=CCCCCOC(=O)N1CC[C@@](N[*:1])(C(=O)[*:2])C1; B5(18) = 2,2-bis(4-pentenyl)glycine (2-amino-2-(pent-4-en-1-yl)hept-6-enoic acid), stitching residue, C=CCCCC(CCCC=C)(N[*:1])C(=O)[*:2]; B5(4) = 2,2-bis(4-pentenyl)glycine = 2-amino-2-(pent-4-en-1-yl)hept-6-enoic acid (stitching residue), C=CCCCC(CCCC=C)(N[*:1])C(=O)[*:2]; B5(21) = 2-amino-2-(pent-4-en-1-yl)hept-6-enoic acid, bis(4-pentenyl)glycine (stitching residue), C=CCCCC(CCCC=C)(N[*:1])C(=O)[*:2]; TfeGA = (S)-2-amino-3-((carboxymethyl)(2,2,2-trifluoroethyl)amino)propanoic acid, O=C([C@H](CN(CC(=O)[*:3])CC(F)(F)F)N[*:1])[*:2]; PyrS4 = (S)-3-amino-1-((hept-6-en-1-yloxy)carbonyl)pyrrolidine-3-carboxylic acid, C=CCCCCCOC(=O)N1CC[C@@](N[*:1])(C(=O)[*:2])C1; PyrS2 = (S)-3-amino-1-((pent-4-en-1-yloxy)carbonyl)pyrrolidine-3-carboxylic acid, C=CCCCOC(=O)N1CC[C@@](N[*:1])(C(=O)[*:2])C1; TriAzDap = Dap whose side chain is a 1H-1,2,3-triazol-1-yl bearing the bracketed 4-substituent; B5(3) = 2,2-bis(4-pentenyl)glycine (stitching residue), C=CCCCC(CCCC=C)(N[*:1])C(=O)[*:2]; B5 = 2-amino-2-(pent-4-en-1-yl)hept-6-enoic acid, C=CCCCC(CCCC=C)(N[*:1])C(=O)[*:2]; B3 = 2-allyl-2-aminopent-4-enoic acid, C=CCC(CC=C)(N[*:1])C(=O)[*:2]; Phe(3-COOH) = N[C@@H](Cc1cccc(C(=O)O)c1)C(=O)O; 2F3MeF = Cc1cccc(C[C@H](N[*:1])C(=O)[*:2])c1F; Phe(2-CF3) = N[C@@H](Cc1ccccc1C(F)(F)F)C(=O)O; Phe(2-CONH2) = NC(=O)c1ccccc1C[C@H](N)C(=O)O; Phe(3,4-F2) = N[C@@H](Cc1ccc(F)c(F)c1)C(=O)O; Phe(2-Cl) = N[C@@H](Cc1ccccc1Cl)C(=O)O; Bta = N[C@@H](Cc1csc2ccccc12)C(=O)O; Lys(iPr) = CC(C)NCCCC[C@H](N)C(=O)O; αAllylPro = C=CC[C@@]1(C(=O)O)CCCN1; tBuAla = CC(C)(C)C[C@H](N)C(=O)O; 3Thi = N[C@@H](Cc1ccsc1)C(=O)O; Cha = N[C@@H](CC1CCCCC1)C(=O)O; PyrS2(4) = not defined here; hSer = N[C@@H](CCO)C(=O)O; MorphCH2 = C1CN(C*)CCO1

B1: I-1418 (peptide)
peptide: Ac-[αAllylPro]DL[B5(4)]DDAAFL[PyrS2″][Phe(2-Cl)][Bta]L-NH2
modifications: staple 1-4, 4-11; also: staple isomer composition of earlier HPLC peak
notes: Stapled peptide; staple isomer composition of the earlier HPLC peak
B2: I-1141 (peptide)
peptide: Ac-[αAllylPro]DF[B5]DDAAFS[PyrS2][Phe(2-Cl)][Bta]T-NH2
modifications: staple 1-4, 4-11
notes: Stapled (stitched) peptide by olefin metathesis; E/Z isomer(s) of the staples not assigned

What follows are binders tested against T1, B-cat-Halo (beta-catenin HaloTag NanoBRET construct expressed in HEK293 cells) (UniProt P35222 1-781) (assay: cell-based or functional assay).
T1 sequence (looked up): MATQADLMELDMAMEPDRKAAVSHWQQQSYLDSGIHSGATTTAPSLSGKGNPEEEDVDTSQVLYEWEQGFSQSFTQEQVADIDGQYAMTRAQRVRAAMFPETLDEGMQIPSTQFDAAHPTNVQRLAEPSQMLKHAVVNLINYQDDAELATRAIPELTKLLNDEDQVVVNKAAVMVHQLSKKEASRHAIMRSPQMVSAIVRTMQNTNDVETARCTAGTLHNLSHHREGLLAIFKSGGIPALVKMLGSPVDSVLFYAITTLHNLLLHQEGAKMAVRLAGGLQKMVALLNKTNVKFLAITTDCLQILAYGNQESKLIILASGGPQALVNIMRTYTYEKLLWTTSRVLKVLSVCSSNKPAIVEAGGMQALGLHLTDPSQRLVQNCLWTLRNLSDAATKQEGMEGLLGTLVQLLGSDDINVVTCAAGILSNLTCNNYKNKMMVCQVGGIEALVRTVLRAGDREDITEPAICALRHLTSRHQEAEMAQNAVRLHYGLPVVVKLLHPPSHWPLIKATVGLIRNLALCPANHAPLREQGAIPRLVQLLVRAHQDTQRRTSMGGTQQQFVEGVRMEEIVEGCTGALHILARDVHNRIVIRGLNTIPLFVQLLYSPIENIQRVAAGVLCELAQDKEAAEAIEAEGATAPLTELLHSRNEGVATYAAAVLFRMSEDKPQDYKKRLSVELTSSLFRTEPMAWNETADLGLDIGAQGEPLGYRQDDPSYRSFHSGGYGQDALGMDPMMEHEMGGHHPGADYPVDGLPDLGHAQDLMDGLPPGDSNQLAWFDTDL

Binder | NanoBRET Abs IC50 [µM]
Ac-[αAllylPro]D[tBuAla][B5(18)]D[TfeGA]AAF[TriAzDap](CH2Ppz)[PyrS2(3)][3Thi][Bta]Q-NH2 (staple 1-4, 4-11; not fully specified) [I-1863] | 37.4
Ac-[αAllylPro]D[tBuAla][B5(18)]D[TfeGA]AAF[TriAzDap](CH2Ppz)[PyrS2(3)][3Thi][Bta]Q-NH2 (staple 1-4, 4-11; not fully specified) [I-1864] | > 20
Ac-[αAllylPro]D[tBuAla][B5(18)]D[TfeGA]AAF[TriAzDap](MorphCH2)[PyrS2(3)][3Thi][Bta]Q-NH2 (staple 1-4, 4-11; not fully specified) [I-1865] | > 20
Ac-[αAllylPro]D[tBuAla][B5(18)]D[TfeGA]AAF[TriAzDap](MorphCH2)[PyrS2(3)][3Thi][Bta]Q-NH2 (staple 1-4, 4-11; not fully specified) [I-1866] | > 20
Ac-[αAllylPro]D[tBuAla][B5(18)]D[TfeGA]AAF[TriAzDap](MorphCH2)[PyrS2(3)][3Thi][Bta]Q-NH2 (staple 1-4, 4-11; not fully specified) [I-1867] | 16.4
Ac-[αAllylPro]D[tBuAla][B5(18)]D[TfeGA]AAF[TriAzDap](SO2MorphCH2)[PyrS2(3)][3Thi][Bta]Q-NH2 (staple 1-4, 4-11; not fully specified) [I-1868] | 39.6

The binders below were run against T2, B-cat-Halo (beta-catenin HaloTag fusion expressed in HEK293 cells) (UniProt P35222 1-781) (assay: cell-based or functional assay).
T2 sequence (looked up): T1 sequence (looked up)

Binder | NanoBRET Abs IC50 [µM]
Ac-[αAllylPro]N[tBuAla][B5(3)]DDAAFL[PyrS2″][3Thi][Bta]Q-NH2 (staple 1-4, 4-11) [Ac-PL3-Asn-Npg-B5-Asp-Asp-Ala-Ala-Phe-Leu-PyrS2-3Thi-BztA-Gln-NH2] | 23.4

These binders were tested against T3, B-cat-Halo (beta-catenin HaloTag NanoBRET construct expressed in HEK293 cells) (UniProt P35222 1-781) (assay: cell-based or functional assay).
T3 sequence (looked up): T1 sequence (looked up)

Binder | NanoBRET Abs IC50 [µM]
Ac-[αAllylPro]D[tBuAla][B3]DDAAFL[PyrS4][3Thi][Bta]Q-NH2 (staple 1-4, 4-11; also: earlier eluting HPLC peak (staple isomer composition)) [I-2158] | > 20
Ac-[αAllylPro]D[tBuAla][B3]DDAAFL[PyrS4][3Thi][Bta]Q-NH2 (staple 1-4, 4-11; also: later eluting HPLC peak (staple isomer composition)) [I-2159] | > 20
Ac-[αAllylPro]D[tBuAla][B3]DDAAFL[PyrS3″][3Thi][Bta]Q-NH2 (staple 1-4, 4-11; also: olefin in each staple reduced to -CH2-CH2-) [I-2161] | > 20
Ac-[αAllylPro]D[tBuAla][B3]DDAAFL[PyrS4][3Thi][Bta]Q-NH2 (staple 1-4, 4-11; also: olefin in each staple reduced to -CH2-CH2-) [I-2162] | > 20
Ac-[αAllylPro]N[Cha][B5(4)]DQ[Lys(iPr)]AFN[PyrS2″]F[Bta][hSer]-NH2 (staple 1-4, 4-11) [I-2167] | > 20
Ac-[αAllylPro]N[Cha][B5(4)]DQ[Lys(iPr)]AFN[PyrS2″][Phe(2-CONH2)][Bta][hSer]-NH2 (staple 1-4, 4-11) [I-2168] | > 20

Each binder was assayed against T4, beta-catenin (in DLD1 TCF/LEF luciferase reporter cells) (UniProt P35222 1-781) (assay: cell-based or functional assay).
T4 sequence (looked up): T1 sequence (looked up)

Binder | DLD1 4% Abs IC50 [µM]
[αAllylPro]D[tBuAla][B5(4)]D[Phe(3-COOH)]AAFL[PyrS2″][Phe(2-Cl)][Bta]Q-NH2 (staple 1-4, 4-11) [I-1332] | 0.9
[αAllylPro]D[tBuAla][B5]D[Phe(3-COOH)]AAFL[PyrS2][Phe(2-Cl)][Bta]S-NH2 (staple 1-4, 4-11) [I-1333] | 1.2
[αAllylPro]D[tBuAla][B5(4)]D[Phe(3-COOH)]AAFL[PyrS2(4)][2F3MeF][Bta]Q-NH2 (staple 1-4, 4-11; not fully specified; reading uncertain) [I-1335] | 0.9
[αAllylPro]D[tBuAla][B5]D[Phe(3-COOH)]AAFL[PyrS2][Phe(2-CF3)][Bta]S-NH2 (staple 1-4, 4-11) [I-1336] | 0.7
[αAllylPro]D[tBuAla][B5(4)]D[Phe(3-COOH)]AAFF[PyrS2″][Phe(2-Cl)][Bta]Q-NH2 (staple 1-4, 4-11) [I-1338] | 3.4
[αAllylPro]D[tBuAla][B5(4)]D[Phe(3-COOH)]AAFF[PyrS2″][Phe(2-CF3)][Bta]Q-NH2 (staple 1-4, 4-11) [I-1341] | 3.2

The binders below were run against T5, Bcat-Halo (UniProt P35222 1-781) (assay: cell-based or functional assay).
T5 sequence (looked up): T1 sequence (looked up)

Binder | NanoBRET Abs IC50 [µM]
Ac-[αAllylPro]DS[B5(21)]DDAAFL[PyrS2″][3Thi][Bta]L-NH2 (staple 1-4, 4-11) [I-1414] | > 20
B1 | > 20
Ac-[αAllylPro]D[tBuAla][B5(4)]DDAAFL[PyrS2][3Thi][Phe(3,4-F2)]Q-NH2 (staple 1-4, 4-11) [I-1427] | 30.4
Ac-[αAllylPro]D[tBuAla][B5(4)]DDAAFL[PyrS2][3Thi][Phe(3,4-F2)]S-NH2 (staple 1-4, 4-11) [I-1428] | 40.2
Ac-[αAllylPro]D[tBuAla][B5(4)]DDAAFL[PyrS2][3Thi]WQ-NH2 (staple 1-4, 4-11) [I-1431] | 14.6
Ac-[αAllylPro]D[tBuAla][B5(4)]DDAAFL[PyrS2][3Thi]WS-NH2 (staple 1-4, 4-11) [I-1432] | 14.5

What follows are binders tested against T6, full-length beta-Catenin (Uniprot ID P35222) (Homo sapiens (Human), UniProt P35222 2-781) (assay: fluorescence polarization competition, 5FAM-TCF4 10-53 probe on full-length beta-catenin).
T6 construct: also called bCat; B-Catenin
T6 sequence: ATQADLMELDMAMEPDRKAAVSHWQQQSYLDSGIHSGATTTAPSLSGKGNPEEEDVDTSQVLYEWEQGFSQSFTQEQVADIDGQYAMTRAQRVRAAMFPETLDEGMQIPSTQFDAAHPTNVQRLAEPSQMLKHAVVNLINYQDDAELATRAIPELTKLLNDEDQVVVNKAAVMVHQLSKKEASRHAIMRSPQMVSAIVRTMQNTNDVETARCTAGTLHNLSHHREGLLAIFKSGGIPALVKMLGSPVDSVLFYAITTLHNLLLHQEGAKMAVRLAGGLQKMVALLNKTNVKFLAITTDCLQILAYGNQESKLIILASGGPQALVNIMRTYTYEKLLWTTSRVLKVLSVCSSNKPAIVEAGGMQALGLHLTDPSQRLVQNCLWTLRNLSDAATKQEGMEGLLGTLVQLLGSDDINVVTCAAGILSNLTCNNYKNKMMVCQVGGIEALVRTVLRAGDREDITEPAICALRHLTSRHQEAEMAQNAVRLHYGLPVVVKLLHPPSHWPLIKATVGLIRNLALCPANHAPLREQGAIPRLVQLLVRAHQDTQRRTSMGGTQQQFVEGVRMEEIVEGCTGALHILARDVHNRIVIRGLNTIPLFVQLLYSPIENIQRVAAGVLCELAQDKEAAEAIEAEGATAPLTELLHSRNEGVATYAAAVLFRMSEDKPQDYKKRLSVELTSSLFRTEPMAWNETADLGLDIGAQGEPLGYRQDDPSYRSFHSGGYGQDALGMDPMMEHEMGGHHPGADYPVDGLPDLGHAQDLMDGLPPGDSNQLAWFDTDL
Method: The plate was incubated protected from light for 60 minutes at 20° C. prior to read. Reads were performed on a CLARIOstar plate reader (BMG Labtech) in duplicate, and data were fitted to a 1:1 binding model with hill slope using an in-house script. All provided concentrations are final concentrations.

Binder | EC50 [µM]
B2 | 0.013
